Laboratory results: publication PMC7616783, “A combined structural and biochemical approach reveals translocation and stalling of UvrB on the DNA lesion as a mechanism of damage verification in bacterial nucleotide excision repair” (DNA repair, 2019)

B1: Thermotoga maritima UvrA (natural protein)
chain: MNEIVVKGARVHNLKNITVRIPKNRLVVITGVSGSGKSSLAMDTIYAEGQRRYLESLSTYARQFLGNLKKPDVDEIEGLSPAIAIDQKTVSHNPRSTVGTVTEIYDYLRVLYARIGKAHCPECGRPLEKKSIDEILQDLFNSFKEGSRIYILAPVATEKKGTFKKEIEEFISKGFARIEIDGEIYRLEEVPELDKNKRHTVKLVVDRLILETRNEHRILDSLELAMREGKGFVEIRNVDTGESKIFSENLMCPVCGIGFPEITPKLFSFNSPYGACPNCHGLGFTFEVDPSLVIDEEKSVLEGAIIPYRWDRRLSRWVAREIEKRGVSPHLPFKDLPEDVKEFILYGDDRFEGVVPKVQRWHRETESPEMKEWLEKNFIVQRTCSVCGGRRLNREALSVKINGLNIHEFTELSISEELEFLKNLNLTEREREIVGELLKEIEKRLEFLVDVGLEYLTLSRSATTLSGGESQRIRLATQIGSGLTGVIYVLDEPTIGLHPRDTERLIKTLKKLRDLGNTVIVVEHDEEVIRNADHIIDIGPGGGTNGGRVVFQGTVDELLKNPDSSLTGEYLSGKRKITVNKTRRLPYASLKIKGVRHNNLKNIDVEIPLGVFVCVTGVSGSGKSSLVMETLYPALMNLLHKTKLPAGEFDSIEGHENIDKMIAIDQSPIGRTPRSNPATYTKVFDEIRSLFAMTPAAKARGYNKSRFSFNLKGGRCEACQGQGYVKIEMLFLPDVYVECDVCKGKRYNRETLEITYKGKNISDILDMTVDEALEFFKNIPSIKRTLQVLHDVGLGYVKLGQPATTLSGGEAQRIKLASELRKRDTGRTLYILDEPTVGLHFEDVRKLVEVLHRLVDRGNTVIVIEHNLDVIKNADHIIDLGPEGGKEGGYIVATGTPEEIAKNPHSYTGRFLKNVL
notes: UvrA, Thermotoga maritima; theoretical MW of the dimer printed as 205.8 kDa; the modelling section counts residues 1-916; In the assays it stood with fluorescein-modified DNA, ADP and Mg2+; also called Tm-UvrA; T. maritima (Tm) UvrA; source: BL21 STAR (DE3), pET28-SUMO based plasmid, purified (nickel resin, Ulp1 digestion, nickel resin, gel filtration)
B2: Thermus thermophilus UvrB (natural protein, UniProt Q56243 1-665, looked up)
chain: MTFRYRGPSPKGDQPKAIAGLVEALRDGERFVTLLGATGTGKTVTMAKVIEALGRPALVLAPNKILAAQLAAEFRELFPENAVEYFISYYDYYQPEAYVPGKDLYIEKDASINPEIERLRHSTTRSLLTRRDVIVVASVSAIYGLGDPREYRARNLVVERGKPYPREVLLERLLELGYQRNDIDLSPGRFRAKGEVLEIFPAYETEPIRVELFGDEVERISQVHPVTGERLRELPGFVLFPATHYLSPEGLEEILKEIEKELWERVRYFEERGEVLYAQRLKERTLYDLEMLRVMGTCPGVENYARYFTGKAPGEPPYTLLDYFPEDFLVFLDESHVTVPQLQGMYRGDYARKKTLVDYGFRLPSALDNRPLRFEEFLERVSQVVFVSATPGPFELAHSGRVVEQIIRPTGLLDPLVRVKPTENQILDLMEGIRERAARGERTLVTVLTVRMAEELTSFLVEHGIRARYLHHELDAFERQALIRDLRLGHYDCLVGINLLREGLDIPEVSLVAILDADKEGFLRSERSLIQTIGRAARNARGEVWLYADRVSEAMQRAIEETNRRRALQEAYNLEHGITPETVRKEVRAVIRPEGYEEAPLEADLSGEDLRERIAELELAMWQAAEALDFERAARLRDEIRALEARLQGVRAPEPVPGGRKRKRR
notes: theoretical MW printed as 76.2 kDa; Two UvrB monomers stand in the complex, one on each side of the UvrA dimer; The complex is heterologous (T. maritima UvrA with T. thermophilus UvrB); also called Tt-UvrB; Thermus thermophilus (Tt) UvrB; source: BL21-CodonPlus(DE3)-RIL, pET28 based plasmid, purified (nickel resin, HRV 3C digestion, nickel resin, gel filtration)

Legend:
[1] = target: the molecule itself; assay: SEC-MALS; UvrA dimer (2.5 mg/ml) mixed 1:1 with self-annealed DNA (32 bp ds region, two fluorescein-modified thymines, 10 nt 5' overhangs), UvrB at two-fold molar excess over the UvrA dimer; dialysed at 4 °C against 20 mM HEPES pH 7.0, 150 mM NaCl, 5% glycerol, 1 mM DTT, 10 mM MgCl2; 1 mM ADP added; BioSuite High Resolution SEC column with MALS detector
Thermotoga maritima UvrA = target: B1; assay: as above; conditions: both partners purified

| Binder | stoichiometry N [1] | stoichiometry N (Thermotoga maritima UvrA) |
| --- | --- | --- |
| B1 | 2 |  |
| B2 |  | 2 UvrB per UvrA dimer |
